B1: ATXN2 peptide 913-928 (Ataxin-2), 16-mer library wild type / PABPC1 PABC (PABPC1 PABC domain, residues 544-623) (parent)
chain 1: TLNPNAKEFNPRSFSQ
chain 2: PLTASMLASAPPQEQKQMLGERLFPLIQAMHPTLAGKITGMLLEIDNSELLHMLESPESLRSKVDEAVAVLQAHQAKEAA
B2: AMOTL2 peptide 64-79 (Angiomotin-like protein 2), 16-mer library wild type / TNKS ANK (TNKS 12 ANK repeats, residues 174-649) (parent)
chain 1: QVLQQATRQEPQGQEH
chain 2: TGVPAVSGALRELLEACRNGDVSRVKRLVDAANVNAKDMAGRKSSPLHFAAGFGRKDVVEHLLQMGANVHARDDGGLIPLHNACSFGHAEVVSLLLCQGADPNARDNWNYTPLHEAAIKGKIDVCIVLLQHGADPNIRNTDGKSALDLADPSAKAVLTGEYKKDELLEAARSGNEEKLMALLTPLNVNCHASDGRKSTPLHLAAGYNRVRIVQLLLQHGADVHAKDKGGLVPLHNACSYGHYEVTELLLKHGACVNAMDLWQFTPLHEAASKNRVEVCSLLLSHGADPTLVNCHGKSAVDMAPTPELRERLTYEFKGHSLLQAAREADLAKVKKTLALEIINFKQPQSHETALHCAVASLHPKRKQVTELLLRKGANVNEKNKDFMTPLHVAAERAHNDVMEVLHKHGAKMNALDTLGQTALHRAALAGHLQTCRLLLSYGSDPSIISLQGFTAAQMGNEAVQQILSESTPIRTSD
B3: RNF115 peptide 69-84 (E3 ubiquitin-protein ligase RNF115), 16-mer library wild type / MDM2 SWIB (MDM2 SWIB/MDM2 domain, residues 17-125) (parent)
chain 1: THFAELWGHLDHTMFF
chain 2: SQIPASEQETLVRPKPLLLKLLKSVGAQKDTYTMKEVLFYLGQYIMTKRLYDEKQQHIVYCSNDLLGDLFGVPSFSVKEHRKIYTMIYRNLVVVNQQESSDSGTSVSEN
B4: MXI1 peptide 4-19 (Max-interacting protein 1), 16-mer library wild type / SIN3A PAH2 (SIN3A PAH domain, residues 295-383) (parent)
chain 1: VKMINVQRLLEAAEFL
chain 2: SLQNNQPVEFNHAINYVNKIKNRFQGQPDIYKAFLEILHTYQKEQRNAKEAGGNYTPALTEQEVYAQVARLFKNQEDLLSEFGQFLPDA

Variants of: B1
Assay: proteomic peptide phage display deep mutational scan (ProP-PD DMS): M13 P8 16-mer library selected against immobilised GST-tagged bait for four days (rounds), NGS of the eluted pools per day and pseudo-replica
Settings: with PABPC1 PABC (PABPC1 PABC domain, residues 544-623); bait immobilised on MaxiSorp plates (10 µg), library pre-cleared on GST, 2 h binding at 4 °C, five washes; one round per day, days 1-4; value from days 2 and 3; scale: average fractional NGS count over selection days 2 and 3

screen value	Variant
0.000142	chain 1 TLNPNAKIFNPRSFSQ [chain 1 E8I]
0	chain 1 TLNPNAKLFNPRSFSQ [chain 1 E8L]
0	chain 1 TLNPNAKDFNPRSFSQ [chain 1 E8D]
0	chain 1 TLNPNAKEANPRSFSQ [chain 1 F9A]
0	chain 1 TLNPNPKEFNPRSFSQ [chain 1 A6P]
0.000105	chain 1 TLNPNIKEFNPRSFSQ [chain 1 A6I]

Variants of: B2
Assay: as above
Settings: with TNKS ANK (TNKS 12 ANK repeats, residues 174-649); bait immobilised on MaxiSorp plates (10 µg), library pre-cleared on GST, 2 h binding at 4 °C, five washes; one round per day, days 1-4; value from days 2 and 3; keep out of graded; scale: average fractional NGS count over selection days 2 and 3

Variant	screen value
chain 1 QVLQQATRQEDQGQEH [chain 1 P11D]	0
chain 1 QVLQQATRQEGQGQEH [chain 1 P11G]	0.000112
chain 1 QVLQQATRQEPQGQEK [chain 1 H16K]	8.3e-05
chain 1 QVLQQATRQEPQGQEF [chain 1 H16F]	7.99e-05
chain 1 QVLQQATRQEPQGQEG [chain 1 H16G]	6.49e-05
chain 1 QVLQQKTRQEPQGQEH [chain 1 A6K]	7.72e-05
chain 1 QVLQQPTRQEPQGQEH [chain 1 A6P]	4.91e-05
chain 1 QVLQQYTRQEPQGQEH [chain 1 A6Y]	5.3e-05
chain 1 QVWQQATRQEPQGQEH [chain 1 L3W]	8.89e-05
chain 1 QVLQQATRQEPQGQGH [chain 1 E15G]	6.84e-05
chain 1 QVLQQATRQEPQGQKH [chain 1 E15K]	0
chain 1 QVLQQATRQDPQGQEH [chain 1 E10D]	9.35e-05
chain 1 QVLQQATRQWPQGQEH [chain 1 E10W]	7.2e-05
chain 1 QVLQQATRQRPQGQEH [chain 1 E10R]	7.98e-05
chain 1 QVLQQATRQEPQIQEH [chain 1 G13I]	0
chain 1 QVLQQATRQEPQWQEH [chain 1 G13W]	0
chain 1 QVLQQATRQEPQQQEH [chain 1 G13Q]	0

The next lines start with the values.

screen value	Variant
0	chain 1 QVLQQATRQEQQGQEH [chain 1 P11Q]
5.08e-05	chain 1 QVLQQATRQEIQGQEH [chain 1 P11I]
0	chain 1 QVLQQATRQERQGQEH [chain 1 P11R]
0	chain 1 QVLQQATFQEPQGQEH [chain 1 R8F]
0	chain 1 QVLQQATIQEPQGQEH [chain 1 R8I]
8.36e-05	chain 1 QVLQQATPQEPQGQEH [chain 1 R8P]
5.93e-05	chain 1 QVLQQATRQEPKGQEH [chain 1 Q12K]
4.06e-05	chain 1 QVLQQATRQEPRGQEH [chain 1 Q12R]
6.07e-05	chain 1 QVLQQADRQEPQGQEH [chain 1 T7D]
7.17e-05	chain 1 QVLQQAKRQEPQGQEH [chain 1 T7K]
0	chain 1 QVLQQARRQEPQGQEH [chain 1 T7R]
7.98e-05	chain 1 QVLQQATRGEPQGQEH [chain 1 Q9G]
4.55e-05	chain 1 QVLQQATRKEPQGQEH [chain 1 Q9K]
5.19e-05	chain 1 QVLQQATRIEPQGQEH [chain 1 Q9I]
0.000146	chain 1 QVLQQATRQEPQGGEH [chain 1 Q14G]
2.86e-05	chain 1 QVLQGATRQEPQGQEH [chain 1 Q5G]
0.000115	chain 1 QVLQDATRQEPQGQEH [chain 1 Q5D]
6.13e-05	chain 1 QVLQWATRQEPQGQEH [chain 1 Q5W]

Variants of: B3
Assay: as above
Settings: with MDM2 SWIB (MDM2 SWIB/MDM2 domain, residues 17-125); bait immobilised on MaxiSorp plates (10 µg), library pre-cleared on GST, 2 h binding at 4 °C, five washes; one round per day, days 1-4; value from days 2 and 3; keep out of graded; scale: average fractional NGS count over selection days 2 and 3

Variant	screen value
chain 1 L6T	0
chain 1 L6S	0
chain 1 F15E	5.35e-05
chain 1 H12R	4.65e-05
chain 1 H12W	3.9e-05
chain 1 H12Y	4.94e-05
chain 1 H9L	3.74e-05
chain 1 H9P	0
chain 1 E5K	0
chain 1 E5M	4.31e-05
chain 1 E5I	1.29e-05
chain 1 E5F	4.65e-05
chain 1 E5P	0
chain 1 E5L	5.37e-05
chain 1 E5G	0.00012
chain 1 F3M	0

Variant	screen value
chain 1 F3K	0
chain 1 F3P	0.000115
chain 1 A4R	5.64e-05
chain 1 G8L	6.83e-05
chain 1 G8I	3.49e-05
chain 1 L10Y	0
chain 1 L10E	0
chain 1 L10P	0
chain 1 L10G	0
chain 1 L10W	0.000123
chain 1 L10A	0
chain 1 D11V	5.15e-05
chain 1 M14R	6.33e-05
chain 1 M14I	5.94e-05
chain 1 M14K	7.54e-05

Continued, values first:

screen value	Variant
3.43e-05	chain 1 T13F
4.86e-05	chain 1 T13E
0	chain 1 W7E
0	chain 1 W7K
0	chain 1 W7N
0	chain 1 W7D
1.6e-05	chain 1 T1R
5.86e-05	chain 1 T1K
8.39e-05	chain 1 T1E

Variants of: B4
Assay: as above
Settings: with SIN3A PAH2 (SIN3A PAH domain, residues 295-383); bait immobilised on MaxiSorp plates (10 µg), library pre-cleared on GST, 2 h binding at 4 °C, five washes; one round per day, days 1-4; value from days 2 and 3; keep out of graded; scale: average fractional NGS count over selection days 2 and 3

Variant	screen value
chain 1 VKMMNVQRLLEAAEFL [chain 1 I4M]	0.00797
chain 1 VKMWNVQRLLEAAEFL [chain 1 I4W]	8.32e-05
chain 1 VKMNNVQRLLEAAEFL [chain 1 I4N]	0.000113
chain 1 VKMANVQRLLEAAEFL [chain 1 I4A]	0
chain 1 VKMTNVQRLLEAAEFL [chain 1 I4T]	0.000667
chain 1 VKMGNVQRLLEAAEFL [chain 1 I4G]	4.79e-05
chain 1 VKMVNVQRLLEAAEFL [chain 1 I4V]	0.00213
chain 1 VKMDNVQRLLEAAEFL [chain 1 I4D]	0.00294
chain 1 VKMFNVQRLLEAAEFL [chain 1 I4F]	0.000274
chain 1 VKMHNVQRLLEAAEFL [chain 1 I4H]	0.000141
chain 1 VKMLNVQRLLEAAEFL [chain 1 I4L]	0.00108
chain 1 VKMKNVQRLLEAAEFL [chain 1 I4K]	0

Second part, the variant after the results:

screen value	Variant
0.000284	chain 1 VKMINVTRLLEAAEFL [chain 1 Q7T]
0	chain 1 VKMINVMRLLEAAEFL [chain 1 Q7M]
0	chain 1 VKMINVGRLLEAAEFL [chain 1 Q7G]
0	chain 1 VKMINVERLLEAAEFL [chain 1 Q7E]
0.000431	chain 1 VKMINVLRLLEAAEFL [chain 1 Q7L]
0	chain 1 VKMINVPRLLEAAEFL [chain 1 Q7P]
0.00193	chain 1 VKMINVWRLLEAAEFL [chain 1 Q7W]
0.000125	chain 1 VKMINVSRLLEAAEFL [chain 1 Q7S]
0.00118	chain 1 VKMINVVRLLEAAEFL [chain 1 Q7V]
